# Data: publication PMC4479312
# Target: integrin α4β7 (human α4 and β7 subunits co-expressed on 293T cells) (human) (UniProt P13612)
# Chain of UniProt P13612 (P13612 34-1032, chain 1 of 2): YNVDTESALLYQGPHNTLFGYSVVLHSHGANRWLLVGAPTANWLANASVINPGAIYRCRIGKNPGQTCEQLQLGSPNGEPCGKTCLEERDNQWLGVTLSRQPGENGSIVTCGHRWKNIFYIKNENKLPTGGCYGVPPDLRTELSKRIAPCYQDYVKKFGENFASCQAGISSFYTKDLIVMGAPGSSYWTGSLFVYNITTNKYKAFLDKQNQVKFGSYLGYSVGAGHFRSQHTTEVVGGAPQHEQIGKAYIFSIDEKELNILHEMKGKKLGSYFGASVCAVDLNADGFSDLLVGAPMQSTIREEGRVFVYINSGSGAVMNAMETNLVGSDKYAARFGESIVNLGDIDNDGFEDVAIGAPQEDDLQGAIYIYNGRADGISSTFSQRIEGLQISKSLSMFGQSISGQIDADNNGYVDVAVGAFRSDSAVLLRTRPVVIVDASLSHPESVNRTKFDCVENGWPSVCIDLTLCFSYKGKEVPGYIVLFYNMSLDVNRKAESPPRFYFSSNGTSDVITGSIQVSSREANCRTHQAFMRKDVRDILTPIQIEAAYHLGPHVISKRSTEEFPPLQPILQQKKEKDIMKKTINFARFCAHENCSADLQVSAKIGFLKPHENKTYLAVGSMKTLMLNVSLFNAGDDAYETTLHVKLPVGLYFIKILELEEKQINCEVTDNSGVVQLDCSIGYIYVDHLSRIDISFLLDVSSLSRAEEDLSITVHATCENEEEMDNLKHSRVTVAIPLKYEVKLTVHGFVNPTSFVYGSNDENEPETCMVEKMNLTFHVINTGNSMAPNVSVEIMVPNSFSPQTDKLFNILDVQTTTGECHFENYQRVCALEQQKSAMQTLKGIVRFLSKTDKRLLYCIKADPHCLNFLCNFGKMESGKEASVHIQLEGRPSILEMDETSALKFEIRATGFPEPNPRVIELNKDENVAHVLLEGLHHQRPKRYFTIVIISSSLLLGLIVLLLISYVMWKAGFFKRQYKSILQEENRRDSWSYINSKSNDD
# Chain of UniProt P13612 (P26010 20-798, chain 2 of 2, further chain): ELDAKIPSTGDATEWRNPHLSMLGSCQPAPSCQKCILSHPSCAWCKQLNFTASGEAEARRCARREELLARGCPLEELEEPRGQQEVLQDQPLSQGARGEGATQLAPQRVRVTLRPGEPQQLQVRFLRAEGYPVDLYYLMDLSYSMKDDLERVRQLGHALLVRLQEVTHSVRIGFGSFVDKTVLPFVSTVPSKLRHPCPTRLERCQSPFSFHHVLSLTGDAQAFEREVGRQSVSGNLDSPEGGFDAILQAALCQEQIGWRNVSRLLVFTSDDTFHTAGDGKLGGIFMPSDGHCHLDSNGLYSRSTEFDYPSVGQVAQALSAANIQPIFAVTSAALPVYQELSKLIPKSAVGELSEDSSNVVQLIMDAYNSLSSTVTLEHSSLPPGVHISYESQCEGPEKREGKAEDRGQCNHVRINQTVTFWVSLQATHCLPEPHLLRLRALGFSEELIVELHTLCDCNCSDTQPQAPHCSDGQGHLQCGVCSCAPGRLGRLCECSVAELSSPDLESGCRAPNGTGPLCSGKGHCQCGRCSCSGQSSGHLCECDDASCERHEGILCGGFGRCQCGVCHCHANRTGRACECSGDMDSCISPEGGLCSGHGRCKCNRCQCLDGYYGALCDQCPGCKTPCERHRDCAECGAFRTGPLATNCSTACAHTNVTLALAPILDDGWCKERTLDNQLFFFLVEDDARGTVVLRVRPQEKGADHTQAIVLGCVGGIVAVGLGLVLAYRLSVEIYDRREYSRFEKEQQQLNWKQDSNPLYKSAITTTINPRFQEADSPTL
row,Substance,α4β7 dependence for replication (Act-1 mAb inhibition of p24 in ATRA-treated CD4+ T cells) [%]
1,HIV-1 subtype C CAP225 transmitted/founder (T/F) envelope glycoprotein (SDI motif) on infectious envelope clone virus (natural protein),> 50
2,HIV-1 subtype C CAP88 transmitted/founder (T/F) envelope glycoprotein on infectious envelope clone virus (natural protein),> 50
3,HIV-1 subtype C CAP206 transmitted/founder (T/F) envelope glycoprotein on infectious envelope clone virus (natural protein),> 50
4,HIV-1 subtype C CAP200 transmitted/founder (T/F) envelope glycoprotein (SDV motif) on infectious envelope clone virus (natural protein),> 50
